# Legend:
# purified protein = substrate: Nc1ncnc2c1ncn2[C@H]1C[C@H](O)[C@@H](COP(=O)(O)OP(=O)(O)OP(=O)(O)O)O1; experiment: purified protein; conditions: 100 nM ssDNA primer FAM-18G, 10 mM Mg(OAc)2, 1x TdT buffer (100 mM KCl, 30 mM Tris-acetate, 0.05% Triton X-100), pH 7.5, 37°C
# [1] = substrate: Nc1ccn([C@@H]2O[C@H](COP(=O)(O)OP(=O)(O)OP(=O)(O)O)[C@@H](O)[C@@H]2F)c(=O)n1; experiment: steady-state primer extension, denaturing PAGE, Michaelis-Menten fit; assay type: biochemical, Bos taurus; conditions: 100 nM ssDNA primer FAM-18G, 10 mM Mg(OAc)2, 1x TdT buffer (100 mM KCl, 30 mM Tris-acetate, 0.05% Triton X-100), pH 7.5, 37°C
# Description: (§1) steady-state primer extension, denaturing PAGE, Michaelis-Menten fit on bovine TdT
# [2] = substrate: Nc1ccn([C@H]2C[C@H](O)[C@@H](COP(=O)(O)OP(=O)(O)OP(=O)(O)O)O2)c(=O)n1; experiment: as above; assay type: biochemical, Bos taurus; conditions: 100 nM ssDNA primer FAM-18G, 10 mM Mg(OAc)2, 1x TdT buffer (100 mM KCl, 30 mM Tris-acetate, 0.05% Triton X-100), pH 7.5, 37°C
# Description: as §1
# [3] = substrate: Nc1nc2c(ncn2[C@@H]2O[C@H](COP(=O)(O)OP(=O)(O)OP(=O)(O)O)[C@@H](O)[C@@H]2F)c(=O)[nH]1; experiment: as above; assay type: biochemical, Bos taurus; conditions: 100 nM ssDNA primer FAM-18G, 10 mM Mg(OAc)2, 1x TdT buffer (100 mM KCl, 30 mM Tris-acetate, 0.05% Triton X-100), pH 7.5, 37°C
# Description: as §1
# [4] = substrate: Nc1nc2c(ncn2[C@@H]2O[C@H](COP(=O)(O)OP(=O)(O)OP(=O)(O)O)[C@@H](O)[C@H]2F)c(=O)[nH]1; experiment: as above; assay type: biochemical, Bos taurus; conditions: 100 nM ssDNA primer FAM-18G, 10 mM Mg(OAc)2, 1x TdT buffer (100 mM KCl, 30 mM Tris-acetate, 0.05% Triton X-100), pH 7.5, 37°C
# Description: as §1
# [5] = substrate: Nc1ncnc2c1ncn2[C@@H]1O[C@H](COP(=O)(O)OP(=O)(O)OP(=O)(O)O)[C@@H](O)[C@@H]1F; experiment: as above; assay type: biochemical, Bos taurus; conditions: 100 nM ssDNA primer FAM-18G, 10 mM Mg(OAc)2, 1x TdT buffer (100 mM KCl, 30 mM Tris-acetate, 0.05% Triton X-100), pH 7.5, 37°C
# Description: as §1
# [6] = substrate: Nc1ncnc2c1ncn2[C@@H]1O[C@H](COP(=O)(O)OP(=O)(O)OP(=O)(O)O)[C@@H](O)[C@H]1F; experiment: as above; assay type: biochemical, Bos taurus; conditions: 100 nM ssDNA primer FAM-18G, 10 mM Mg(OAc)2, 1x TdT buffer (100 mM KCl, 30 mM Tris-acetate, 0.05% Triton X-100), pH 7.5, 37°C
# Description: as §1
# [7] = substrate: O=c1ccn([C@@H]2O[C@H](COP(=O)(O)OP(=O)(O)OP(=O)(O)O)[C@@H](O)[C@@H]2F)c(=O)[nH]1; experiment: as above; assay type: biochemical, Bos taurus; conditions: 100 nM ssDNA primer FAM-18G, 10 mM Mg(OAc)2, 1x TdT buffer (100 mM KCl, 30 mM Tris-acetate, 0.05% Triton X-100), pH 7.5, 37°C
# Description: as §1
# [8] = substrate: CO[C@@H]1[C@H](O)[C@@H](COP(=O)(O)OP(=O)(O)OP(=O)(O)O)O[C@H]1n1ccc(N)nc1=O; experiment: purified protein, by the assay type; parameters: Steady-state single-nucleotide incorporation into primer FAM-18G, denaturing PAGE band quantification, Michaelis-Menten fit
# Description: (§2) The steady-state kinetic experiments were performed as described previously with minor modifications ([61]). A 2× reaction solution was prepared by mixing 200 nM primer FAM-18G, 0–128 μM 2′-modified NTP and 20 mM Mg(OAc)2 in 2× TdT buffer. A 5 μl aliquot of pre-warmed 2× reaction solution was mixed with 5 μl of bovine TdT, MTdT-evo or murine TdT of varying concentration, and incubated at 37°C for a certain time. The reaction was then quenched by the addition of 10 μl of 2× TBE-urea sample buffer and incubation at 95°C for 10 min. The products were analysed with 20% denaturing PAGE gels containing 8 M urea. All gel bands were quantified using Quantity One analysis software (Bio-Rad). Km and kcat values were calculated by fitting the data to the Michaelis–Menten equation with GraphPad Prism 8 software. To quantify the activities of different TdTs for the incorporation of 2′-modified NTPs, steady-state kinetic experiments were carried out.
# [9] = substrate: CO[C@@H]1[C@H](O)[C@@H](COP(=O)(O)OP(=O)(O)OP(=O)(O)O)O[C@H]1n1cnc2c(=O)[nH]c(N)nc21; experiment: purified protein, by the assay type; parameters: Steady-state single-nucleotide incorporation into primer FAM-18G, denaturing PAGE band quantification, Michaelis-Menten fit
# Description: as §2
# [10] = substrate: Cc1cn([C@H]2C[C@H](O)[C@@H](COP(=O)(O)OP(=O)(O)OP(=O)(O)O)O2)c(=O)[nH]c1=O; experiment: purified protein, by the assay type; parameters: Steady-state single-nucleotide incorporation into primer FAM-18G, denaturing PAGE band quantification, Michaelis-Menten fit
# Description: as §2
# [11] = substrate: O=c1ccn([C@@H]2O[C@H](COP(=O)(O)OP(=O)(O)OP(=O)(O)O)[C@@H](O)[C@H]2F)c(=O)[nH]1; experiment: purified protein, by the assay type; parameters: Steady-state single-nucleotide incorporation into primer FAM-18G, denaturing PAGE band quantification, Michaelis-Menten fit
# Description: as §2
protein,measurement,setting,value
"bovine TdT (Bos taurus) (protein, recombinant, plasmid pET30a-bovine TdT, E. coli BL21(DE3)) MDPLCTASSGPRKKRPRQVGASMASPPHDIKFQNLVLFILEKKMGTTRRNFLMELARRKGFRVENELSDSVTHIVAENNSGSEVLEWLQVQNIRASSQLELLDVSWLIESMGAGKPVEITGKHQLVVRTDYSATPNPGFQKTPPLAVKKISQYACQRKTTLNNYNHIFTDAFEILAENSEFKENEVSYVTFMRAASVLKSLPFTIISMKDTEGIPCLGDKVKCIIEEIIEDGESSEVKAVLNDERYQSFKLFTSVFGVGLKTSEKWFRMGFRSLSKIMSDKTLKFTKMQKAGFLYYEDLVSCVTRAEAEAVGVLVKEAVWAFLPDAFVTMTGGFRRGKKIGHDVDFLITSPGSAEDEEQLLPKVINLWEKKGLLLYYDLVESTFEKFKLPSRQVDTLDHFQKCFLILKLHHQRVDSSKSNQQEGKTWKAIRVDLVMCPYENRAFALLGWTGSRQFERDIRRYATHERKMMLDNHALYDKTKRVFLKAESEEEIFAHLGLDYIEPWERNA",Km,purified protein,2.65 ± 0.76 µM
same,kcat,purified protein,0.00517 s⁻¹
same,kcat/Km,purified protein,1950 M⁻¹ s⁻¹
same,Km,[1],2.83 ± 0.69 µM
same,kcat,[1],0.0285 ± 0.00317 s⁻¹
same,kcat/Km,[1],10100 M⁻¹ s⁻¹
same,Km,[2],3.14 ± 0.46 µM
same,kcat,[2],0.02 ± 0.001 s⁻¹
same,kcat/Km,[2],6370 M⁻¹ s⁻¹
same,Km,[3],2.91 ± 0.52 µM
same,kcat,[3],0.0638 ± 0.00417 s⁻¹
same,kcat/Km,[3],22000 M⁻¹ s⁻¹
same,Km,[4],4.03 ± 0.52 µM
same,kcat,[4],0.0182 ± 0.000483 s⁻¹
same,kcat/Km,[4],4500 M⁻¹ s⁻¹
same,Km,[5],2.23 ± 0.32 µM
same,kcat,[5],0.0443 ± 0.00717 s⁻¹
same,kcat/Km,[5],19800 M⁻¹ s⁻¹
same,Km,[6],0.97 ± 0.27 µM
same,kcat,[6],0.00933 ± 0.0011 s⁻¹
same,kcat/Km,[6],9620 M⁻¹ s⁻¹
same,Km,[7],2.63 ± 0.77 µM
same,kcat,[7],0.0148 ± 0.00065 s⁻¹
same,kcat/Km,[7],5630 M⁻¹ s⁻¹
same,Km,[8],5.87 ± 0.76 µM
same,kcat,[8],0.0004 ± 5.83e-05 s⁻¹
same,kcat/Km,[8],68.2 M⁻¹ s⁻¹
same,Km,[9],6.10 ± 1.50 µM
same,kcat,[9],0.000683 ± 2.17e-05 s⁻¹
same,kcat/Km,[9],112 M⁻¹ s⁻¹
same,Km,[10],4.19 ± 0.91 µM
same,kcat,[10],0.0075 ± 0.000833 s⁻¹
same,kcat/Km,[10],1780 M⁻¹ s⁻¹
same,Km,[11],5.33 ± 1.58 µM
same,kcat,[11],0.00267 ± 0.000112 s⁻¹
same,kcat/Km,[11],500 M⁻¹ s⁻¹
